Experimental data as given in the supplement of paper PMC12764529.
± gives the half width of the 95% confidence interval.

Key:
[1] = folding stability dG unfold from chymotrypsin proteolysis; higher = more stable
Outline: (§1)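 Mini-proteins designed to be under 80 residues and free of cysteine were carried in a PA-tagged cDNA display construct and digested with trypsin and with chymotrypsin. Each protease was applied at 11 threefold-diluted concentrations, alongside a no-protease condition, before sequencing. K50 came from Bayesian fitting of the sequencing counts, and unfolding free energy was obtained by comparing it with a sequence-predicted unfolded-state K50 and a shared folded-state K50, for each protease separately or for both together. Designs were retained only if their AlphaFold2 dimer inter-PAE exceeded 15.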

[2] = folding stability dG unfold from trypsin proteolysis; higher = more stable
Outline: as §1

[3] = folding stability dG unfold (combined trypsin and chymotrypsin); higher = more stable
Outline: as §1

| Sequence | folding stability dG unfold [1] | folding stability dG unfold [2] | folding stability dG unfold [3] |
| --- | --- | --- | --- |
| SAGGSMTVVIVKLRPPDSPEVLYLPFRGRLPNGDWVPISLEELLEALEALPDLEVEEIIVAPPEEISAGGSA [r2_192_TrMRF] | 1.74 ± 0.087 kcal/mol | 1.73 ± 0.16 kcal/mol | 1.7 ± 0.23 kcal/mol |
| SAGGSMVIEAEIEFPDMTPEEVEERAEEIAEAAAEFARKKGFPIKKVEADVEVFPGEGVVKVTVTLEGSAGG [r13_212_TrMRF] | 0.204 ± 0.2 kcal/mol | 0.612 ± 0.043 kcal/mol | 0.611 ± 0.11 kcal/mol |
| SAGGSMVIRVETPEEAEEAARELAERLRELFPEVKELEIKVKVEVVDEETGEEKEYEFTIKLKLPPSAGGSA [r2_393_TrROS_Hall] | 2.62 ± 0.098 kcal/mol | 2.54 ± 0.12 kcal/mol | 2.62 ± 0.24 kcal/mol |
| SAGGSMVITITFPDGSTVTIPEEELLELLKKYGIEPDESDKEKVAKEAAKIIGEEKGIPIKEVKINSAGGSA [r2_83_JUSTAS] | 3.43 ± 0.092 kcal/mol | 1.54 ± 0.059 kcal/mol | 3.01 ± 0.066 kcal/mol |
| SAGGSMVKEIEIPVPEDWTPEDAVEAAREYLEANPELENVIVRFTLPDGTPLVVEIKPGGKIVKVTPESAGG [r13_690_JUSTAS] | 3.26 ± 0.07 kcal/mol | 1.71 ± 0.069 kcal/mol | 2.83 ± 0.15 kcal/mol |
| SAGGSMVRVTIEDKDGKEHWIMIPPGMDPNDVKQQIKKFLEDNGWKVKDVEVETYPPGWAMIRVRVSAGGSA [r2_148_TrROS] | 2.33 ± 0.031 kcal/mol | 1.88 ± 0.021 kcal/mol | 2.2 ± 0.052 kcal/mol |
| SAGGSMVSEEEIKEIVEKTAAELPEDAVEPVTVTIELPNPDGTTTVLTITITRSPTSISYTVSSSPAASAGG [r19_220_JUSTAS] | 3.27 ± 0.048 kcal/mol | 3.56 ± 0.11 kcal/mol | 3.34 ± 0.039 kcal/mol |
| SAGGSMVVTETLVETLTETLTFPDGTPVTVTVPVTVTVEVYLPEPPAPPPLPFSRLAEELGDPALVSAGGSA [r2_340_JUSTAS] | -0.661 ± 0.43 kcal/mol | -0.838 ± 0.26 kcal/mol | -0.623 ± 0.15 kcal/mol |
| SAGGSNPNMFRLKVEIEPYEYRDPDGQPKARVWKIDIEMEPGMPPNMAKNIASNFQNRGLPVKIEPSAGGSA [r2_456_TrROS] | 0.689 ± 0.12 kcal/mol | 0.102 ± 0.18 kcal/mol | 0.578 ± 0.16 kcal/mol |
| SAGGSPARPVLVTITLPDGEEVTRRMTLEEIERLVAKDPNVKVTIELPDGSVYTVDPNTGTITKAPSAGGSA [r2_222_JUSTAS] | 2.49 ± 0.026 kcal/mol | 2.84 ± 0.075 kcal/mol | 2.63 ± 0.14 kcal/mol |
| SAGGSPATVLSSSTLSTTPLPDGTTLTTSETVTLLPNGEPVVTTTTTTTAPDGSVTTTTTTTPLDAASAGGS [r16_261_JUSTAS] | 0.671 ± 0.043 kcal/mol | 1.05 ± 0.043 kcal/mol | 0.885 ± 0.047 kcal/mol |
| SAGGSPDIKFNEVKVELPTAETEAEFEKNTYKVEVPAPPELDITTTTTLTTSSGSTTTTTSTSPLELPSAGG [r13_191_JUSTAS] | -1.11 ± 0.79 kcal/mol | 0.0505 ± 0.06 kcal/mol | -0.304 ± 0.11 kcal/mol |
| SAGGSPEVKIEIEVTERVTVFDENGKPVEEVLVVKAKITFPDGTTATITAFFYEGKWFITSIELEPSAGGSA [r2_158_TrROS_Hall] | 4.83 ± 0.24 kcal/mol | 3.84 ± 0.25 kcal/mol | 4.62 ± 0.27 kcal/mol |
| SAGGSPEVKVLLFYDPATGERVVVVVTYDPATGEKKVLVFVESRPELVELVKKLLEDLGYEVEVVPSAGGSA [r2_30_TrMRF] | 3.82 ± 0.16 kcal/mol | 3.39 ± 0.19 kcal/mol | 3.63 ± 0.11 kcal/mol |
| SAGGSPGQPYYIMIKLEWENPEDGEEHTFDIMFPVKSAEDAKDYILKELLPPGHKLKIDDISIMPMSAGGSA [r2_320_TrROS] | 1.19 ± 0.1 kcal/mol | 1.48 ± 0.022 kcal/mol | 1.4 ± 0.15 kcal/mol |
| SAGGSPGSSLIGKKKLTIKVDNKDVEVEVTTSLSFLPSNQVTTSTEVKITLPNGKKIPKSLVEKLLSAGGSA [r2_363_JUSTAS] | 0.66 ± 0.17 kcal/mol | 0.711 ± 0.044 kcal/mol | 0.742 ± 0.12 kcal/mol |

| Sequence | folding stability dG unfold [1] | folding stability dG unfold [2] | folding stability dG unfold [3] |
| --- | --- | --- | --- |
| SAGGSPHVSTDAADPELAARLLREAFGTDEVPLVRRDPTTGALLAFLPATGRLVWTDRTTVRVEPSSAGGSA [r2_205_TrMRF] | -0.0869 ± 0.13 kcal/mol | 0.325 ± 0.13 kcal/mol | 0.13 ± 0.074 kcal/mol |
| SAGGSPIIRVKVTYYPPDGSVTVYLPADSVDELIDALNSVPDIPVTPTDGDTIIASTPDAIVEITVESSAGG [r13_143_TrMRF] | 0.849 ± 0.032 kcal/mol | 0.471 ± 0.031 kcal/mol | 0.717 ± 0.097 kcal/mol |
| SAGGSPIQTAVTTNTLGNETITTTTLVPPEAVATSVTTVYEPDPNSDNYVVKSVLTTTTSTLPPSDAASAGG [r13_568_JUSTAS] | 0.0608 ± 0.067 kcal/mol | -0.417 ± 0.055 kcal/mol | -0.0865 ± 0.062 kcal/mol |
| SAGGSPISLEVSTSTLPDGTLRVTTTATSPDSSRSYTVTLDFPPSQPEEIPARAAAEAAAIAADPAVASAGG [r13_968_JUSTAS] | 1.35 ± 0.058 kcal/mol | -0.552 ± 0.19 kcal/mol | 0.907 ± 0.086 kcal/mol |
| SAGGSPMRIRDVEIEEFDPDAGRIEIRFPSNGNTIKIPIPPGHKSLKIKIRMKNGEPFEQTITIPPSAGGSA [r2_132_TrROS] | 1.08 ± 0.12 kcal/mol | 0.578 ± 0.14 kcal/mol | 1.01 ± 0.22 kcal/mol |
| SAGGSPPPLRITYKIRMGGQPFEWTIPIPADDLPPGQQIEIDIRIKKMDPENNRMRMEIDDVEVTPSAGGSA [r2_479_TrROS] | 0.979 ± 0.27 kcal/mol | -0.209 ± 0.32 kcal/mol | 0.76 ± 0.19 kcal/mol |
| SAGGSPTIKLEILLPKEMTPEEVEALARELEEAGYEIVSIKVETVKDEDGREWVRVTITLRPKEDLSAGGSA [r2_442_TrROS_Hall] | 3.97 ± 0.045 kcal/mol | 3.21 ± 0.076 kcal/mol | 3.73 ± 0.092 kcal/mol |
| SAGGSPTREVVLPTKDPTADKAFYTVRITLTEPPSNSTAVTVTFLDLPPDVEPSPELVAAVEAALSSAGGSA [r2_7_JUSTAS] | 0.436 ± 0.13 kcal/mol | 0.46 ± 0.036 kcal/mol | 0.495 ± 0.056 kcal/mol |
| SAGGSPVYKVEIRMTIVDKNGTVKSIVNLELTFKTEEEIEKFLESIPKETVVEIEIEKRTVEPPEKLSAGGS [r16_677_JUSTAS] | 0.699 ± 0.068 kcal/mol | 2.12 ± 0.055 kcal/mol | 1.41 ± 0.11 kcal/mol |
| SAGGSQEELAKQLAEELAKKEGLKEVKVSITPSPGPVLNITFEFYDENGNKKGVKSKTIPLPPDLLSAGGSA [r2_153_JUSTAS] | 0.0811 ± 0.15 kcal/mol | 1.06 ± 0.11 kcal/mol | 0.515 ± 0.53 kcal/mol |
| SAGGSSEIVELKSIEKKGNSVILTLESKTNDYKVVVVIEGNKIRAYVFDKNGNIIAEFEFDGHPYLSAGGSA [r2_437_TrMRF] | 3.34 ± 0.046 kcal/mol | 2.41 ± 0.11 kcal/mol | 3.15 ± 0.15 kcal/mol |
| SAGGSSIKIEKIEKHENGVKIDISVPDLSNEEEINAVKKKLAEELGLKEEDVEVSLKSENIPLPPSIGSAGG [r13_430_JUSTAS] | 2.32 ± 0.21 kcal/mol | 0.474 ± 0.11 kcal/mol | 1.75 ± 0.22 kcal/mol |
| SAGGSSIKIPNPNGYEIEIEVTPDRAKIKWRMPGKEQEQEFPPGEDVTIRFPDGMPLTIKIPPPGESAGGSA [r2_57_TrROS] | 0.154 ± 0.26 kcal/mol | 0.456 ± 0.089 kcal/mol | 0.424 ± 0.13 kcal/mol |
| SAGGSSKTEIYYNPKKPYFLIKVTYKNGKTKEYPIKGKGMSLEELKKKAEEIVKELNSEEFKEVVFNPSAGG [r13_267_TrMRF] | 2.5 ± 0.082 kcal/mol | 2.02 ± 0.12 kcal/mol | 2.53 ± 0.14 kcal/mol |
| SAGGSSMKTSETTDPANGTPVRVETSIDPATNKVTTTVTTPDGTTVGSGTITIPPESSVTTTTTTTTPASAG [r5_747_JUSTAS] | 1.49 ± 0.091 kcal/mol | 0.793 ± 0.079 kcal/mol | 1.21 ± 0.11 kcal/mol |
